According to PMC4576506:

Biological target: recombinant human glycine receptor α1 subunit (hGlyRα1) homopentamer, detergent solubilized (human) (UniProt P23415)
Test: SEC

stoichiometry N: 5
Substance: recombinant human glycine receptor α1 subunit (hGlyRα1) homopentamer, detergent solubilized (from UniProt P23415-2 29-449)
